Laboratory results: US20150258192A1, “COMPOSITIONS AND METHODS FOR PREVENTING OR TREATING CHRONIC LUNG ALLOGRAFT DYSFUNCTION (CLAD) AND IDIOPATHIC PULMONARY FIBROSIS (IPF)” (priority 2014, published 2015)
No end group written: not given here.

Key:
Assay in all cases: Kinase Profiling Assay
Format in all cases: biochemical
Settings in all cases: peptide 100 μM
DMPK(h) = target: T1, DMPK(h) (Homo sapiens, UniProt Q09013)
T1 sequence (Q09013 1-629): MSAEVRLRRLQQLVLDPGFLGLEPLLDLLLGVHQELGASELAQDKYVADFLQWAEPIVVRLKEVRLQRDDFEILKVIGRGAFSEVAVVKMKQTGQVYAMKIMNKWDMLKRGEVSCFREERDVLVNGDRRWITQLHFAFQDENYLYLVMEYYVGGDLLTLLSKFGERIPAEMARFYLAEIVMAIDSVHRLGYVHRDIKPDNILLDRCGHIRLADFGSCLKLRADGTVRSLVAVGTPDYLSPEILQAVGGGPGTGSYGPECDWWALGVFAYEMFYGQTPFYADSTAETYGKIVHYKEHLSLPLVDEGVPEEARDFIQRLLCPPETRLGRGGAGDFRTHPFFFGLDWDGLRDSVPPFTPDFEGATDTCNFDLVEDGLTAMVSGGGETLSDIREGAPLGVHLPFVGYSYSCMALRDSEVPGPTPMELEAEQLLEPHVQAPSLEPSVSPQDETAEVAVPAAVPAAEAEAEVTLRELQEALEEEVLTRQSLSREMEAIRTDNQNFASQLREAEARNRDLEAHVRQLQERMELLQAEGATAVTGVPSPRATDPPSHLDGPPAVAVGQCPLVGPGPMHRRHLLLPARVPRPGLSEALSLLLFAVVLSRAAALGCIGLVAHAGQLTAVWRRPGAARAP
Summary of the method: (§1)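 Each kinase activity was measured in duplicate. Phosphorylation of a positively charged substrate with radiolabeled phosphate from ATP was captured on a negatively charged filter, counted by scintillation and expressed relative to a 100% activity control. MK2 inhibitory peptides were screened for specificity across 266 human kinases.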

Ax1(h) = Ax1(h) (Homo sapiens, UniProt P30530)
Summary of the method: as §1

CLK3(h) = CLK3(h) (Homo sapiens, UniProt P49761)
Summary of the method: as §1

BRK(h) = BRK(h) (Homo sapiens, UniProt Q13882)
Summary of the method: as §1

NEK6(h) = target: T2, NEK6(h) (Homo sapiens, UniProt Q9HC98)
T2 construct: purchased Millipore
Summary of the method: as §1

MLK1(h) = target: T3, MLK1(h) (Homo sapiens, UniProt P80192)
T3 construct: purchased Millipore
Summary of the method: as §1

TAO2(h) = target: T4, TAO2(h) (Homo sapiens, UniProt Q9UL54)
T4 construct: purchased Millipore
T4 sequence (Q9UL54 1-1235): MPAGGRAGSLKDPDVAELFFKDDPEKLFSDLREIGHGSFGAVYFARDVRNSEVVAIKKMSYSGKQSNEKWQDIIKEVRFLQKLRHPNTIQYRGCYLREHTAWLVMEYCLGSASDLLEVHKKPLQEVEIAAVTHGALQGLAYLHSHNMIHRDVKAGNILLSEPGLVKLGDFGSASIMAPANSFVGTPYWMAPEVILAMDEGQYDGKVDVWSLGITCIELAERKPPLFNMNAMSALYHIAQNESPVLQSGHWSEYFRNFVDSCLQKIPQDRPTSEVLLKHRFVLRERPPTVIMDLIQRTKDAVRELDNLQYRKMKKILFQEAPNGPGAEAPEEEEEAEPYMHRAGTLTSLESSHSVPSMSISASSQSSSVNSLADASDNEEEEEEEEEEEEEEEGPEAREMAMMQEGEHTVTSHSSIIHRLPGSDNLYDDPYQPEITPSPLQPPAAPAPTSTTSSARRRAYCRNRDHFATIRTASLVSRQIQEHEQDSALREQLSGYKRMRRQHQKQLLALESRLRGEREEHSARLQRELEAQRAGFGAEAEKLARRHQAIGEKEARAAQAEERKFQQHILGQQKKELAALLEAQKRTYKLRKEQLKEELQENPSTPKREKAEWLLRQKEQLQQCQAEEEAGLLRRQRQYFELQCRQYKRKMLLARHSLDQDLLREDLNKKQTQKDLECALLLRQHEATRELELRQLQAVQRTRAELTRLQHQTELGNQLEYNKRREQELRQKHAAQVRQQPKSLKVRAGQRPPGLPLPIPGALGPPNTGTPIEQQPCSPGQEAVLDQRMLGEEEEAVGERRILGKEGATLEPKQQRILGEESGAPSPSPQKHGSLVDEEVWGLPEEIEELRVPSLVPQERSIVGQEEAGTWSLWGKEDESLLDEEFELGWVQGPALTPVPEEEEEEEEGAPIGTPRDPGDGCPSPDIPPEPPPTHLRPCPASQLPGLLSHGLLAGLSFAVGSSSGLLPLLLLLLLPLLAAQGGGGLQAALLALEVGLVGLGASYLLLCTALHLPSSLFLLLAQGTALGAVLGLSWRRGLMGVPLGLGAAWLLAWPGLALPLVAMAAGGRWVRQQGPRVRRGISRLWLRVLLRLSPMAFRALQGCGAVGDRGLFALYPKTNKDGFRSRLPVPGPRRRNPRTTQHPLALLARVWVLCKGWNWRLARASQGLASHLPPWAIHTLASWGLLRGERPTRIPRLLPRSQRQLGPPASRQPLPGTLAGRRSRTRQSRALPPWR
Summary of the method: as §1

HIPK2(h) = target: T5, HIPK2(h) (Homo sapiens, UniProt Q9H2X6)
T5 construct: purchased Millipore
Summary of the method: as §1

SAPK4(h) = target: T6, SAPK4(h) (Homo sapiens, UniProt O15264)
T6 construct: purchased Millipore
T6 sequence (O15264 1-365): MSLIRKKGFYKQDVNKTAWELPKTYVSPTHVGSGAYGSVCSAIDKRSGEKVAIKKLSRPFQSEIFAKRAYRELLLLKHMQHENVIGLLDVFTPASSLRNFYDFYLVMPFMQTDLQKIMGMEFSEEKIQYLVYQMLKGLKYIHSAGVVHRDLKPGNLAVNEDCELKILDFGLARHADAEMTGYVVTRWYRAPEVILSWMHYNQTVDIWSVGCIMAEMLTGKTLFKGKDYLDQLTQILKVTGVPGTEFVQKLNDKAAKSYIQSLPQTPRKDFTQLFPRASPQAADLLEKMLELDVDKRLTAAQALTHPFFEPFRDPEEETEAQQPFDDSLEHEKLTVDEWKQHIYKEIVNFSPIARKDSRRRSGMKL
Summary of the method: as §1

Hck(h) = target: T7, Hck(h) (Homo sapiens, UniProt P08631)
T7 construct: purchased Millipore
Summary of the method: as §1

T5 sequence (Q9H2X6 whole entry): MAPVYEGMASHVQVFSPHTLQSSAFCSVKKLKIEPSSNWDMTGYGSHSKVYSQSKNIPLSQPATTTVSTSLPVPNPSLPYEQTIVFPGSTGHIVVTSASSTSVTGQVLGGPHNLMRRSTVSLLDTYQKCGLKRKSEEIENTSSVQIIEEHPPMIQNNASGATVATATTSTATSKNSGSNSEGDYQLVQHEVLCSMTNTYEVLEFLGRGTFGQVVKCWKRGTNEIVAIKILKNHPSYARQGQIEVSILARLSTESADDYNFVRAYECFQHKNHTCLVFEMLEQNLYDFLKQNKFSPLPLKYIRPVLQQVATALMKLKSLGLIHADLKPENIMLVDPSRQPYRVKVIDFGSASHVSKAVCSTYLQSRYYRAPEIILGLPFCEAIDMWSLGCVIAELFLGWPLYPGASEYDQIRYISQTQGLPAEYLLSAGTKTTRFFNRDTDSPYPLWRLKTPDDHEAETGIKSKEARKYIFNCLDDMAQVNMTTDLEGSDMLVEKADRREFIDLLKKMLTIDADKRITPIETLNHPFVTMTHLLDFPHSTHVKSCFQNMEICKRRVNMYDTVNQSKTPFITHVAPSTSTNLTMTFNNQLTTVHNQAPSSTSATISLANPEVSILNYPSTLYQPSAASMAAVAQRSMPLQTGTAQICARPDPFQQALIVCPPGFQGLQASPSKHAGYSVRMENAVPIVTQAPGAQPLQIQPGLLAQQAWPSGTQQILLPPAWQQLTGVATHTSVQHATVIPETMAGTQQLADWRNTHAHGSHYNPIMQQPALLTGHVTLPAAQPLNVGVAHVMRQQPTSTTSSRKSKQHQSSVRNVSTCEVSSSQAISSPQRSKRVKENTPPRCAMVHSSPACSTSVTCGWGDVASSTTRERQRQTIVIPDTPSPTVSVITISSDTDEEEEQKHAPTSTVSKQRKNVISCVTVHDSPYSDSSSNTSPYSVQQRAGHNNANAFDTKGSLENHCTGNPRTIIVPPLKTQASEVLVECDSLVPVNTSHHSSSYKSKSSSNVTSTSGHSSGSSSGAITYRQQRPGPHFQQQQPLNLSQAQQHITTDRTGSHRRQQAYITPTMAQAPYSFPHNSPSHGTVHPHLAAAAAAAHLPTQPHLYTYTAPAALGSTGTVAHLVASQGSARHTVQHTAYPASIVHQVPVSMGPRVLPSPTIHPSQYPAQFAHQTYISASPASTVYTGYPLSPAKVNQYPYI
CLK3(h), sequence (P49761 whole entry): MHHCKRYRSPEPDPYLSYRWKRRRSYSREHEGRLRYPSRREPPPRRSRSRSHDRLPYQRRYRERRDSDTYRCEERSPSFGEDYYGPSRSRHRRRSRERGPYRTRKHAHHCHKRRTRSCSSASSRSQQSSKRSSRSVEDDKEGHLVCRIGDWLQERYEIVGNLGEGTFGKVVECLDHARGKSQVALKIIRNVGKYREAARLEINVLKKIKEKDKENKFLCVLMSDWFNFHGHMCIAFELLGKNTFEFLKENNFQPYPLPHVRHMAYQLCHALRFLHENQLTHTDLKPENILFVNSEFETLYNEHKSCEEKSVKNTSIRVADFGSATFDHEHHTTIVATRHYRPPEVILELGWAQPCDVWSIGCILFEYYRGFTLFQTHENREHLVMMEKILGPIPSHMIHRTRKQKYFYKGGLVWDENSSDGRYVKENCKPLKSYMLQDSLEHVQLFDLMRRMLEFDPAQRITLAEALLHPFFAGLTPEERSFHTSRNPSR
BRK(h), sequence (Q13882 whole entry): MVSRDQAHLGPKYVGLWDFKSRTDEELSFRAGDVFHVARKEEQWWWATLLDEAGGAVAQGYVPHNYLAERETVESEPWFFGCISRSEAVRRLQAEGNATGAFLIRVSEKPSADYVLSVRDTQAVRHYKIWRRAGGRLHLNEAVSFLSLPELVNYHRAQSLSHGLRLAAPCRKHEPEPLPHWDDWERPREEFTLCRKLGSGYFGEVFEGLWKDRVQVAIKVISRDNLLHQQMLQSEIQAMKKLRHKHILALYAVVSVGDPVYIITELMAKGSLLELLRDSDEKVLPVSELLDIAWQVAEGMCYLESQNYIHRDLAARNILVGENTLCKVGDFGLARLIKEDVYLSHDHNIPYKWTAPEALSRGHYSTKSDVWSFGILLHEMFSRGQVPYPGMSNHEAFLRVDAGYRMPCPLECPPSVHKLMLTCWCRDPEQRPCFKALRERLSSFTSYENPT
T3 sequence (P80192 whole entry): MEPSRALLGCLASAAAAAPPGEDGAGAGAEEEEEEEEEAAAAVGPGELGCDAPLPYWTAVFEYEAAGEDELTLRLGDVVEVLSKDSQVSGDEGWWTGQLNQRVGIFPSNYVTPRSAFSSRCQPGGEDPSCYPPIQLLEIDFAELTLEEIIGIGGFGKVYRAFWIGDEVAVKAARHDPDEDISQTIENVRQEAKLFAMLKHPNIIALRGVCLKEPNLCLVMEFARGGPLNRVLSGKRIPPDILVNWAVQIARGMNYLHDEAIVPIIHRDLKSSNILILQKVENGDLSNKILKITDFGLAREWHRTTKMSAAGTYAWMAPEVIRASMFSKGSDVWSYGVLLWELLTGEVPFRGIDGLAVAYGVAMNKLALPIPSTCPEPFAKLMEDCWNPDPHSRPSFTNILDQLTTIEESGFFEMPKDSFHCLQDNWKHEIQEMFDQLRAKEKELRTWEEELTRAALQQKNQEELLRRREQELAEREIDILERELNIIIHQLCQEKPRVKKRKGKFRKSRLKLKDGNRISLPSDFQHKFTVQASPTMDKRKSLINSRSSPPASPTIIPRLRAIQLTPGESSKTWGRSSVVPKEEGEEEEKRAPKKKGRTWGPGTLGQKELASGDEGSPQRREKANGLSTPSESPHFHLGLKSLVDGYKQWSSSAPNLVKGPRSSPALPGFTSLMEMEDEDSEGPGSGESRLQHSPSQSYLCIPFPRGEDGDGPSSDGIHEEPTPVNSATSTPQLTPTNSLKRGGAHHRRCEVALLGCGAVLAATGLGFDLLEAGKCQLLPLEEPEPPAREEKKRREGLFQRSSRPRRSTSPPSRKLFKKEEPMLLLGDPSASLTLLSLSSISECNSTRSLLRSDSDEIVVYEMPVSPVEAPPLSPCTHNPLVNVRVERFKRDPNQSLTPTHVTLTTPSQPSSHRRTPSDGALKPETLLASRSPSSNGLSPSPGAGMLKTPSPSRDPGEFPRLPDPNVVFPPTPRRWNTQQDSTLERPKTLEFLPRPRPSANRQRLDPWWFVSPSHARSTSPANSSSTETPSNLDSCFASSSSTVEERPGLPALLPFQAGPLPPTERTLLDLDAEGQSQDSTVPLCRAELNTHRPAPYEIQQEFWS
T7 sequence (P08631 whole entry): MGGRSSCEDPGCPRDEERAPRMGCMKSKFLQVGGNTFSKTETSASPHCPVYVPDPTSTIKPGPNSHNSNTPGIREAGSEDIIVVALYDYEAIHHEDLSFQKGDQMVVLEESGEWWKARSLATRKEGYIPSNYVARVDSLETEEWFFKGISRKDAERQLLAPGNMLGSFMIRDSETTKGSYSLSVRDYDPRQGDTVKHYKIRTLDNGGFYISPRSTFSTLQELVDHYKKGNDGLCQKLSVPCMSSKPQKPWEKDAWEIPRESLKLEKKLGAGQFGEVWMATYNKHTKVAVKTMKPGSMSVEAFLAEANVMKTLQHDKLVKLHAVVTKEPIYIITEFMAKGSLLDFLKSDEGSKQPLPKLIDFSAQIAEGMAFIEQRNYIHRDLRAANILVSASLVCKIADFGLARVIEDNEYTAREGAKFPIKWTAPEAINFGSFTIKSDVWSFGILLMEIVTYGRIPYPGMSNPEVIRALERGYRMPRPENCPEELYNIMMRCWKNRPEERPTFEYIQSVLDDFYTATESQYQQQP
T2 sequence (Q9HC98 whole entry): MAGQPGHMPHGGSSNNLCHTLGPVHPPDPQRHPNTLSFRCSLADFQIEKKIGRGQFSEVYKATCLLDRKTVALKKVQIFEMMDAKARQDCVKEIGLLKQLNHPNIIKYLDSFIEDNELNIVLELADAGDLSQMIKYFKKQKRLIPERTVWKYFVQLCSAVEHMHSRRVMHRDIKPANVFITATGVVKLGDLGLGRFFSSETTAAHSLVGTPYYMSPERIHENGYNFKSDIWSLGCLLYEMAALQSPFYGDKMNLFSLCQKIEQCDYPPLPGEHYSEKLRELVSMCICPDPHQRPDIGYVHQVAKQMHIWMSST

Row | Sequence | % activity (DMPK(h)) | % activity (Ax1(h)) | % activity (CLK3(h)) | % activity (BRK(h)) | % activity (NEK6(h)) | % activity (MLK1(h)) | % activity (TAO2(h)) | % activity (HIPK2(h)) | % activity (SAPK4(h)) | % activity (Hck(h))
1 | YARAAARQARAKALNRQLGVA (Mammal) [MMI-0200] | 66% | 99% | 76% | 127% | 98% | 84% | 93% |  |  | 
2 | YARAAARQARAKALARQLGVAA [MMI-0100] |  | 81% | 108% | 70% |  | 77% | 95% | 98% |  | 
3 | HRRIKAWLKKIKALARQLGVAA (Mammal) [MMI-0500] | 12% | 12% | 76% | 41% | 49% | 43% | 15% | 38% | 48% | 78%
4 | KAFAKLAARLYRKALARQLGVAA [MMI-0400] | 54% | 41% | 84% | 18% | 85% | 33% | 74% | 90% | 91% | 72%
5 | FAKLAARLYRKALARQLGVAA [MMI-0300] | 59% | 52% | 61% | 35% | 82% | 40% | 70% | 73% | 96% | 72%
